Test results taken from PMC2602770.

B1: 8-UTR_938 (ssRNA)
RNA: CGUUUGGUUUACUUUUUUGAUGAAACA
B2: 8-UTR_WT (ssRNA)
RNA: GUUUUUGGUUUAGAUUUGGUUUUGUGU
B3: 7-UTR_WT (ssRNA)
RNA: AUUUUGUUCUGGUUCUGCUUUAGAUUUGAUCU
B4: 8-intron_WT (ssRNA)
RNA: CUUCCACGAUUGUUUUUGCUGAUGUGU
B5: 7-intron_G6mut (ssRNA)
RNA: GUUCAAUUUUAUUAAAUUAUUUUACUGAUCUG
B6: 7-intron_WT (ssRNA)
RNA: GUUCAGUUUUGUUGGAUUGUUUUGCUGAUCUG

Key:
GST-AtGRP8 (WT) [1] = target: T1, GST-AtGRP8 (WT) (Arabidopsis thaliana, UniProt Q03251 1-169); assay: EMSA
T1 sequence: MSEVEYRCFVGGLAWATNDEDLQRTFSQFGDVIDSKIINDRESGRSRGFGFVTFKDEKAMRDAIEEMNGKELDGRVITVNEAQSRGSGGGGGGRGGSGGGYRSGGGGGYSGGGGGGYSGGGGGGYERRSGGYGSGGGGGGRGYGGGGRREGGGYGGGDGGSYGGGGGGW

GST-AtGRP8 (WT) [2] = target: T1, GST-AtGRP8 (WT); assay: EMSA; remark: listed apart in the source
GST-AtGRP8-RQ = target: T2, GST-AtGRP8-RQ (Arabidopsis thaliana, UniProt Q03251 1-169, R47Q); assay: EMSA
T2 sequence: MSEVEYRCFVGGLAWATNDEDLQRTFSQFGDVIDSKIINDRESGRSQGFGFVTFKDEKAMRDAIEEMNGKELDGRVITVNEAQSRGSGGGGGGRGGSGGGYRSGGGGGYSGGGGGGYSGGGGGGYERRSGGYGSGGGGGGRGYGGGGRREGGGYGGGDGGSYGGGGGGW

GST-AtGRP8 (WT) [3] = target: T1, GST-AtGRP8 (WT); assay: competition

| Binder | binding signal (GST-AtGRP8 (WT) [1]) | Kd (GST-AtGRP8 (WT) [2]) [nM] | Kd (GST-AtGRP8-RQ) [nM] | binding result (GST-AtGRP8 (WT) [3]) |
| --- | --- | --- | --- | --- |
| B1 | ~10 fold lower affinity than 8-UTR_WT |  |  |  |
| B2 |  | 205 | 1310 |  |
| B3 |  | 318 | 3220 |  |
| B4 |  | 1640 | 22900 |  |
| B5 |  |  |  | no binding |
| B6 |  | 426 | 3590 |  |
